Measured values as given in US20260042827A1 (UNIVERSITY HEALTH NETWORK, published 2026).

What was measured:
HLA-DP2 = biological target: T1, HLA-DP2 (human, UniProt P20036 29-222; P04440 30-225, limits assumed); assay: cell-based competitive binding assay on T2/DP2 cells, reference peptide Oxy271-287
T1 construct: whole, on cells; also called T2 cells transduced with DP2
T1 MHC II alpha: not shown
T1 MHC II beta: not shown

HLA-DP4 [1] = biological target: T2, HLA-DP4 (human, UniProt P20036 29-222; P04440 30-225, limits assumed); assay: cell-based competitive binding assay on T2/DP4 cells, reference peptide Oxy271-287
T2 construct: whole, on cells; also called T2/DP4
T2 sequence (P20036 29-222 limits assumed, chain 1 of 4, other chains not shown): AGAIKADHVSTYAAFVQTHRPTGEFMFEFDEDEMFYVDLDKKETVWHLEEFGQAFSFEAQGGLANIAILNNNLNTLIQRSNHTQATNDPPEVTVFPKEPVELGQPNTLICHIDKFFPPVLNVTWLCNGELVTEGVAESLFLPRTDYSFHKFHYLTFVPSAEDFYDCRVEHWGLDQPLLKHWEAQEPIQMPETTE
T2 sequence (P04440 30-225 limits assumed, chain 2 of 4, other chains not shown): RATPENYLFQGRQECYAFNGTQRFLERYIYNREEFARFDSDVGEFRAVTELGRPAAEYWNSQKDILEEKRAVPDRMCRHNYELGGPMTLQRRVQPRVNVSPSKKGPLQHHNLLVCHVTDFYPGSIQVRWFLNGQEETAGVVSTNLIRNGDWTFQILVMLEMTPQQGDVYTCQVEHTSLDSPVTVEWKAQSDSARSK

[2] = biological target: T3, WT1330-348 presented by DP4 on K562 cells (human, UniProt P20036 29-260; P04440 30-258); assay: flow cytometry on peptide-pulsed K562 transfectants, PE anti-mouse secondary
T3 construct: whole, on cells; Exogenously pulsed peptide

[3] = biological target: T4, WT1330-348 presented by DP2 on K562 cells (human, UniProt P20036 29-260; P04440 30-258); assay: as above
T4 construct: whole, on cells; Exogenously pulsed peptide
T4 MHC II alpha: not shown
T4 MHC II beta: not shown
T4 peptide: CNKRYFKLSHLQMHSRKHT

[4] = biological target: T5, WT1330-348 presented by DP5 on K562 cells (human, UniProt P20036 29-260; P04440 30-258); assay: as above
T5 construct: whole, on cells; Exogenously pulsed peptide
T5 MHC II alpha: not shown
T5 MHC II beta: not shown
T5 peptide: CNKRYFKLSHLQMHSRKHT

WT1330-348 = biological target: T6, WT1330-348; assay: biolayer interferometry (Octet Red96), biotinylated peptide on streptavidin tips, 5H2 in solution, steady state fit with 1:1 model
T6 construct: also called WT1 peptide
T6 peptide: CNKRYFKLSHLQMHSRKHT

HLA-DP4 [5] = biological target: T2, HLA-DP4; assay: cell-based competitive binding assay on T2/DP4 cells, graded WT1328-348 against reference peptide Oxy271-287

B1: WT1235-243 (peptide)
peptide: CMTWNQMNL
notes: Negative control peptide; also called HLA-A2 restricted peptide
HLA-DP2
  binding result: no binding (tested: any tested concentration)
HLA-DP4 [1]
  binding result: no binding (tested: any tested concentration)

B2: WT1-specific mAb, 5H2 (antibody, V domains shown)
VH: EVQLQQSGAELVRPGALVKLSCKASGFNIKDYYMHWVKQRPEQGLEWIGWIDPENGNTIYDPKFQGKASITADTSSNTAYLQLSSLTSGDTAVYYCTRDGYYMVFAYWGQGTLVTVSA
VL: DIQMTQSPSSLSASLGGKVTITCKASQDINKCIAWYKHKPGKGPRLLIHYTSILQPGIPSRFSGSGSGRDYSFSISNLEPEDIATYYCLQYDNLYTFGGGTKLEIK
notes: also called clone 5H2; 5H2 mAb
[2]
  binding result: binds
[3]
  binding result: binds
[4]
  binding result: binds
WT1330-348
  Kd: ~50 nM

## PGCNKRYFKLSHLQMHSRKHT (also called 21-mer peptide) [WT1328-348]
HLA-DP4 [5]
  binding result: binds
